Substrate: NCCCP(=O)(O)OP(=O)(O)OC[C@H]1O[C@@H](n2ccc(N)nc2=O)[C@H](O)[C@@H]1O
Assay: steady-state kinetics
Type: biochemical, Streptomyces rubellomurinus

B1: FrbG (Streptomyces rubellomurinus) (protein)
chain: MTHYATVICGGGPAGVSAVVAAAVQGRLEEFLDRGVLLVEATGRAGSGSIPHYGIRANSLGSAFLECLDGPAGSGLLAGLADSAEARELRGWADEYPPLPVVGAFLTLVGERVVDALRRHPRCDALLGHRVVEVRTGPERATVLLSGPDGELSHTGDRVLLTMGGRERTELAPDALAALVERRPGLRVLSSGEVITDPSWHPDAASPHRALGSIAVLGGAHSAWAVAAHLARLARAGWFAGPVEVTVVERRLPPIFYFSAAEARAEGYRWDEADVCGPSGRVHRFGGLRGPARELARQVMGLAAEKAPDGFGQVVLDGPWTAEALEAAVGDADLVITALGYDARLPRLLGADGRELELARPRGAVDTGRDGLPGLAAGGRAERLVMYGLGAGLVPSEETGGEPGYRGRLDGVWVYQHDIGAVILRALLANDRTEDGR
Km: 15.1 ± 1.5 µM | kcat: 0.0987 ± 0.00633 s⁻¹ | kcat/Km: 6520 M⁻¹ s⁻¹
